Tests used:
[1] = molecular target: DUX4 DNA-binding domain (dbd) (Homo sapiens, UniProt Q6RFH8 SEQ:1-150); experiment: EMSA; binding inhibited by recombinant MATR3 1-287; conditions: tags: 6xHis-GB1 (pET-GB1)
Method: (§1) Twenty femtomoles of probes were incubated with 15 pmol of in vitro purified 6xHis DUX4 dbd and/or GST-MATR3 1-287 proteins in the presence of 1 μg of poly(dI:dC) and 5 μg of salmon sperm DNA in a buffer containing 10 mM Tris, pH 7.5, 0.1 mM EDTA, 1 mM DTT, 100 mM KCl, 3 mM MgCl2, 12% glycerol.
(§2) After 2 h incubation at RT, DNA-protein complexes were separated by electrophoresis in 8% (w/v) acrylamide gels formed in 0.5×TBE (Sigma-Aldrich) and run in the same buffer at 5 mA at 4° C. Then, the gels were transferred on a Biodyne nylon membrane (Thermo Scientific) at 380 mA for 45 min at 4° C. The membrane was crosslinked at 120 mJ/cm2 with an UV-Stratalinker and the biotin-labelled DNA was detected by chemiluminescence using the LightShift Chemiluminescent EMSA Kit (Thermo Scientific) following the manufacturer's protocol.

MATR3 fragment 1-287 = molecular target: T1, MATR3 fragment 1-287 (Homo sapiens, UniProt P43243 SEQ:1-287); experiment: EMSA; MATR3 1-287 alone unable to bind DNA; lacks nucleic acid binding domains; conditions: tags: GST (pGEX2tk)
T1 sequence: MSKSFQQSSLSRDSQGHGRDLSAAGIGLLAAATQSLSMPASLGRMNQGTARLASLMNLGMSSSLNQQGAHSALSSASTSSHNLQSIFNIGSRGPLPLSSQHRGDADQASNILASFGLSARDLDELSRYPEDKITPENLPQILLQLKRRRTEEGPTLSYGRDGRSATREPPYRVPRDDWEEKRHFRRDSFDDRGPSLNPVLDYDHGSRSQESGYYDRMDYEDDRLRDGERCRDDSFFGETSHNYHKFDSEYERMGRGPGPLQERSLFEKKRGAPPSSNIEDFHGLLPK
Method: as §1, §2

DUX4 DNA-binding domain (dbd), sequence (Q6RFH8 1-150): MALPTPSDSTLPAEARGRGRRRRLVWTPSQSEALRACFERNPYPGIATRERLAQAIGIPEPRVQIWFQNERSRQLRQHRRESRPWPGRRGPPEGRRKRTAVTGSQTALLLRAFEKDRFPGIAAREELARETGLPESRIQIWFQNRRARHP

B1: FRG1 Peak 1 EMSA probe (dsDNA)
DNA 1: AATTGTAGCTATAATTCAATCATCTAAATTG
DNA 2: CAATTTAGATGATTGAATTATAGCTACAATT
B1: binds [1]; no binding (MATR3 fragment 1-287).

Source: patent US20220098252, “INHIBITOR OF DUX4 AND USES THEREOF” (OSPEDALE SAN RAFFAELE S.R.L., published 2022)
